Earlier results on 2 substances are cited in publication PMC12152951.

Data set [1] deals with TSLPR-IL7Rα fusion protein (Homo sapiens) (UniProt Q9HC73).
Data set [2] deals with TSLPR (Homo sapiens) (UniProt Q9HC73).
Data set [3] deals with IL7Rα (Homo sapiens) (UniProt P16871).
Sequence of UniProt P16871 (P16871 21-239): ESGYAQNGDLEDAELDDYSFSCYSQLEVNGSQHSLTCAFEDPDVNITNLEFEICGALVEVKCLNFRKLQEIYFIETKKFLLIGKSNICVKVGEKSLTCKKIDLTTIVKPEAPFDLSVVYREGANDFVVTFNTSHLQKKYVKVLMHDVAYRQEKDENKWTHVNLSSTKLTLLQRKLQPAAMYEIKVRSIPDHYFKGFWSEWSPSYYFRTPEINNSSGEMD

For TSLP (from UniProt Q969D9), the equilibrium dissociation constant (Kd) (commonly the concentration at which binding is half-saturated) is 0.09 nM in data set [1] and 32 nM in data set [2]. Regarding “TSLP-TSLPR complex (from UniProt Q969D9)”, the Kd in data set [3] was 29 nM.
